Measurements: article PMC12376085

Molecular target: HLA-A2/β2M complex on T2 cells (no pulsed peptide) (human (endogenous in T2) | human)
Assay: flow cytometry on cells

RMFPNAPYL [… peptide (WT1 126–134)]
MFI of surface HLA-A2 on peptide-pulsed T2 cells: 74200

ILSLELMKL [… peptide]
MFI of surface HLA-A2 on peptide-pulsed T2 cells: 53900
